B1: F1.9.19 human-murine chimeric antibody (antibody, human IgG1, kappa, V domains shown)
VH: DVQLQESGPGLVKPSQSLSLTCSVTGYSITSGYYWNWIRQFPGNRLEWMAYISYDGINNYNPSLKNRISIARDTSTNQFFLKLNSVTSEDTATYYCATTTEVALFDHWGQGTTLTVSS
VL: DVLLTQTPLSLPVSLGDQASISCRSSQNIVHGNGNTYLEWFLQKPGQSPKLLIYKVSNRFSGVPDRFSGSGSGTDFTLKISRVEAEDLGLYYCFQASHVPWTFGGGTKLEIKR
B2: F2.152.3 human-murine chimeric antibody (antibody, human IgG1, kappa, V domains shown)
VH: EVQLQQSGPELVKPGASVKMSCKASGYTFTDYYMTWVKQSHGKSLEWIGRVNPRNGDTTYNQKFEGRATLTLDKSLSTAFMQLNSLTSEDSAVYYCINSKGHFDYWGQGTTLTVSS
VL: DVLMTQTPLSLPVSLGDQASISCRSSQSIVHSNGNTYLEWFLQKPGQSPKSLIYKVSNRFSGVPDRFSGSGSGTDFTLKISRVEAEDLGVYYCFQGSHVPPTFGAGTKLELKR
B3: F2.169.2 human-murine chimeric antibody (antibody, human IgG1, kappa, V domains shown)
VH: EVQLVETGGGLVQPKGSLKLSCAASGFSFNTNAMNWVRQAPGKGLEWVARIRSKSNNYATYYADSVKDRFTISRDDSQSMLYLQMNNLKTEDTAMYYCVRDGYYVLFAYWGQGTLVTVSA
VL: DVLMTQTPLSLPVSLGDQASISCRFSQSIVNSNGNTYLEWFLQKPGQSPKLLIYKVSNRFSGVPDRFSGSGSGTDFTLKISRVEAEDLGVYYCFQGSHVPFTFGTGTKLEIKR
B4: F2.154.1 human-murine chimeric antibody (antibody, human IgG1, kappa, V domains shown)
VH: QVQLQQSGAELVRPGASVKLSCKASGYRFTDYEMHWVKQTPVHGLEWIGTIDPETGNTAYTQKFMDKATLTADKSSSTAYMELRSLTSEDSAVYYCTRGYSFTYWGQGTLATVSA
VL: DVLMTQTPLSLPVSLGDQASISCRSSQNIVHSNGNTYLQWYLQKPGQSPKLLIFKVSNRFSGVPDRFSGSGSGTDFTLKISRVEAEDLGVYYCFQGSHVPFTFGTGTKLEIKR
B5: F1.111.11 human-murine chimeric antibody (antibody, human IgG1, kappa, V domains shown)
VH: EVQLQQSGPELVKPGASVKISCKASGYTFTDYYMNWVKQSHGKSLEWIGDIYPNNGDTTYNQRFKGKATLTVDKSSSTAYMELRSLASEDSAVYYCACPYNNPFGYWGQGTLVTVSA
VL: DVVMTQTPLSLPVSLGDQASISCRSSQSLVHSNGNTYLHWYLQKPGQSPKLLIYKVSNRFSGVPDRFSGSGSGTDFTLKISRVEAEDLGVYFCSQSTHVPWTFGGGTKLEIKR
B6: F2.39.2 human-murine chimeric antibody (antibody, human IgG1, kappa, V domains shown)
VH: QVQLQQSGAELVRPGASVKVSCKASGYTFTDYEMHWMKQTPVHGLEWIGANEPETGRSAYDQKFKGKATLTADKSSSTAYMELRSLTSEDSAVYYCTRFYSFAYWGQGTLVTVSA
VL: DVVMTQTPLSLPVSLGDQASISCRSSQGLVHNNGNTYLHWYLQKPGQSPKLLIYKVSNRFSGVPDRFSGSGSGTDFTLKISRVEAEDLGVYFCSQNTHVPPTFGGGTKLEIKR
B7: F2.92.1 human-murine chimeric antibody (antibody, human IgG1, kappa, V domains shown)
VH: QVQLQQSGAELVRPGASVKLSCKASGYIFSDYEIHWVKQTPVHGLECIGAVDPETGGTAYNQKFKGKATLTADKSSSTAYMELRSLTSEDSAVYFCTRFYSFAYWGQGTLVTVST
VL: DVVMTQTPLSLPVSLGDQGSISCRSSQSLVHSNGNTYLQWYLQKPGQSPKLLIYKVSNRFSGVPDRFSGSGSGTDFTLKISRVEAEDLGVYFCCQSTHVLPTFGGGTKLEIKR
B8: F1.62.9 human-murine chimeric antibody (antibody, human IgG1, kappa, V domains shown)
VH: QVQLQQSDAELVKPGASVKISCKVSGYIFTDHTIHWMKQRPEQGLEWIGYIYPRDGSIKYNENFKGKATLTADKSSSATYMQLNSLTSEDSAVYFCARPIYYDYAYYFDYWGQGTTLTVSS
VL: DVVMTQSPLSLPVSLGDQASISCRSRQSLVHSNGNTYLHWYLQKPGQSPKVLIYKVSNRFSGVPDRFSGSGSGTDFTLKISRVEAEDLGVYFCSQSTHVPYTFGGGTKLEIKR
B9: F2.23.8 human-murine chimeric antibody (antibody, human IgG1, kappa, V domains shown)
VH: QVQLQQSGAELVRPGASVKLSCKASGYTFTDYEMHWVKQTPVHGLEWFGAIDPETGGTAYNQKFRAKATLTADKSSSTAYMELRSLTSEDSAVYYCTRFYSFAYWGQGTLVTVSA
VL: DVVMTQTPLSLPVSLGDQASISCRSSQSLVHSNGNTYLQWYLQKPGQSPKLLIYKVSNRFSGVPDRFSGSGSGTDFTLKITRVEAEDLGVYFCSQSTHVPYTFGSGTKLEIKR
B10: F1.3.9 human-murine chimeric antibody (antibody, human IgG1, kappa, V domains shown)
VH: QVQLQQPGTELVKPGASVKLSCKASGYTFTSYWIHWVKQRPGQGLEWIGNINPPNAGTNYNEKFKSKATLTVDKSSSTAYMQLSSLTSEDSAVYYCARGRWLLHDYWGQGTTLTVSS
VL: DIQMTQSPASLSISVGETVTITCRASENIYSNLAWYQQKQGKSPQLLVYGTKNLAEGVPSRFSGSGSGTQYSLKINSLQSEDFGNYYCQHFWGTPYTFGGGTKLEILR
B11: F1.153.1 human-murine chimeric antibody (antibody, human IgG1, kappa, V domains shown)
VH: QIQLVQSGPELKKPGETVKISCKASGYTFTTAGMQWVQKMPGKGFKWIGWINTHSGEPQYAEDFKGRFAFSLETSASTAYLQISNLKNEDTATYFCARSFYYHGSSFFYFDYWGQGTTLTVSS
VL: DIVMTQSQKFMSTTVGDRVSITCKASQNVGTAVAWYQQKPGQSPKLLIYSASNRYTGVPDRFTGSGSGADFTLTISNMQSEDLADYFCQQYSRYPLTFGAGTKLELKR
B12: F1.145.22 human-murine chimeric antibody (antibody, human IgG1, kappa, V domains shown)
VH: QVQLQQSGTDLARPGASVKLSCKASGYTFTSFGISWVKQRTGQGLEWIGEIYPRSGSPYYNEKFTGKATLTADKSSSTAYMELRSLTSEDSAVYFCAKDFGSSYVFDYWGQGTALTVSS
VL: DIQMTQSPASLSASVGETVTITCRASENIYSYLTWYQQKQGKSPQLLVYNAKTLAEGVPSRFSGSGSGTQFSLKINSLQPEDFGTYYCQHHYGTPPTFGTGTKLDLKR
B13: F1.136.7 human-murine chimeric antibody (antibody, human IgG1, kappa, V domains shown)
VH: EVQLQQSGPVMVKPGPSVKISCQTSGFTFTDYYIHWVKQSHGKSLEWIGLVFPYDGGTNYNQKFKDKATLTLDTSSSTAYMELNSLTSEDSAVYYCARAGGFSYALNYWGQGTSVTVSS
VL: DIQMTQSPSSLSASLGGKVTITCKASQDINNYIAWYQHKPGKGPRLLIHFTSTLQPGIPSRFSGSGSGRDYSFSISNLEPEDIATYYCLQYDNLLLTFGAGTKLELKR
B14: F2.55.11 human-murine chimeric antibody (antibody, human IgG1, kappa, V domains shown)
VH: EVKLVESGGGLVKPGGSLKLSCAASGLTFSTCTMSWVRQTPAKRLEWVATISSGGGNTYYPDSVKGRFTISRDNARNTLYLQMSSLRSEDTAMYYCVRLYYDGSPYAMDYWGQGTSVTVSS
VL: DIQMTQTTSSLSASLGDRVTISCRASQDISNHLNWYQQKPDGTVKLLIYYTSRLHSGVPSRFSGSGSGTDYSLTISNLEQEDIATYFCQQDSKPPPTFGSGTKLEIKR
B15: F1.118.4 human-murine chimeric antibody (antibody, human IgG1, kappa, V domains shown)
VH: QVQLQQSGAELAKPGASVKLSCKASGYSFTSYWIHWVKQRPGQGLEWIGYINPSSGYTKYNQKFKDKATLTADKSSSTAYMQLSSLTYEDSAVYYCARFGSSSFYFDYWGQGTTLTVSS
VL: DIVLTQSPASLAVSLGQRATISCRASQSVSSSSYSYMHWYQQKPGQPPKLLIKYASNLDSGVPARFSGSGSGTDFTLNIHPVEEEDTATYYCQHSWEIPAFGGGTKLEIKR

target: T1, murine GPC3-his protein (Sino Biological, Cat. No. 50989-M08B) (murine, UniProt Q8CFZ4 25-558); test: ELISA, coated murine GPC3-His;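 note: antigen coated on plates at 1 µg/mL, test antibody bound for 2 h at 37 °C, detected with HRP-conjugated secondary antibody and TMB substrate after acid stop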
T1 construct: Bought protein; also called murine GPC3 protein
T1 sequence (Q8CFZ4 25-558 limits assumed): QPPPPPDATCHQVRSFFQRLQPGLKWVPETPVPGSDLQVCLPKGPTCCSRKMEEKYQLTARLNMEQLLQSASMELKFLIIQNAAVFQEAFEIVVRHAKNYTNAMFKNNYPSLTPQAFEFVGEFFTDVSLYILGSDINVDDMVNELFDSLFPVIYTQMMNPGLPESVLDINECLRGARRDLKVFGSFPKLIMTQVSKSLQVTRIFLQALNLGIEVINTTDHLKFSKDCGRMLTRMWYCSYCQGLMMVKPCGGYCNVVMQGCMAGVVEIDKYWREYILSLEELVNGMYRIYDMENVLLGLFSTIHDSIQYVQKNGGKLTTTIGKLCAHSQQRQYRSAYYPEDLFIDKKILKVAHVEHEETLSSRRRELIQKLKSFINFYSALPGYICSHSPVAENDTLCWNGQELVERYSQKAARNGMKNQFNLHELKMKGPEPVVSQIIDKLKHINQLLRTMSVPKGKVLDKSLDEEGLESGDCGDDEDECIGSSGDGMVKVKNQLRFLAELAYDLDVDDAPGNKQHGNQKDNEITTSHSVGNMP

Binder	OD450 at 0.0001 nM antibody	OD450 at 0.001 nM antibody	OD450 at 0.01 nM antibody	OD450 at 0.1 nM antibody	OD450 at 1 nM antibody	OD450 at 10 nM antibody	OD450 at 100 nM antibody
B1	0.05 OD450 nm	0.04 OD450 nm	0.05 OD450 nm	0.05 OD450 nm	0.05 OD450 nm	0.05 OD450 nm	0.07 OD450 nm
B2	0.05 OD450 nm	0.12 OD450 nm	0.67 OD450 nm	1.94 OD450 nm	2.54 OD450 nm	2.53 OD450 nm	2.47 OD450 nm
B3	0.05 OD450 nm	0.09 OD450 nm	0.38 OD450 nm	1.68 OD450 nm	2.49 OD450 nm	2.72 OD450 nm	2.63 OD450 nm
B4	0.05 OD450 nm	0.05 OD450 nm	0.05 OD450 nm	0.05 OD450 nm	0.05 OD450 nm	0.05 OD450 nm	0.06 OD450 nm
B5	0.06 OD450 nm	0.13 OD450 nm	0.62 OD450 nm	2.04 OD450 nm	2.67 OD450 nm	2.6 OD450 nm	3.01 OD450 nm
B6	0.05 OD450 nm	0.06 OD450 nm	0.07 OD450 nm	0.05 OD450 nm	0.05 OD450 nm	0.05 OD450 nm	0.06 OD450 nm
B7	0.04 OD450 nm	0.05 OD450 nm	0.05 OD450 nm	0.07 OD450 nm	0.05 OD450 nm	0.05 OD450 nm	0.07 OD450 nm
B8	0.04 OD450 nm	0.04 OD450 nm	0.05 OD450 nm	0.04 OD450 nm	0.04 OD450 nm	0.06 OD450 nm	0.28 OD450 nm
B9	0.05 OD450 nm	0.06 OD450 nm	0.07 OD450 nm	0.04 OD450 nm	0.06 OD450 nm	0.05 OD450 nm	0.06 OD450 nm
B10	0.05 OD450 nm	0.04 OD450 nm	0.04 OD450 nm	0.05 OD450 nm	0.18 OD450 nm	0.18 OD450 nm	0.37 OD450 nm
B11	0.04 OD450 nm	0.08 OD450 nm	0.04 OD450 nm	0.04 OD450 nm	0.05 OD450 nm	0.08 OD450 nm	0.09 OD450 nm
B12	0.05 OD450 nm	0.06 OD450 nm	0.08 OD450 nm	0.75 OD450 nm	0.77 OD450 nm	1.62 OD450 nm	1.32 OD450 nm
B13	0.05 OD450 nm	0.05 OD450 nm	0.06 OD450 nm	0.22 OD450 nm	0.17 OD450 nm	0.91 OD450 nm	0.17 OD450 nm
B14	0.05 OD450 nm	0.05 OD450 nm	0.05 OD450 nm	0.05 OD450 nm	0.05 OD450 nm	0.07 OD450 nm	0.16 OD450 nm
B15	0.05 OD450 nm	0.05 OD450 nm	0.05 OD450 nm	0.05 OD450 nm	0.05 OD450 nm	0.06 OD450 nm	0.07 OD450 nm

Reference: patent US20260116991A1 (HAINAN SIMCERE ZAIMING PHARMACEUTICAL, published 2026)
